Measurements published in the supplement of paper PMC9942255.

Tested on: Bacillus subtilis DB104 (SP-AmyQ fusion secretion)
Test: AmyQ secretion efficiency, weighted average sort bin (1 = best secretion, 10 = worst) (bin number (weighted average, 1-10)); higher = lower secretion efficiency
In short: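 In this assay, the secretion score is defined as the average bin number weighted by read frequency, normalised to beads per bin, with low-abundance sequences not counted. B. subtilis DB104 cells expressing mature AmyQ behind designed signal peptides (amyE-integrated) were enclosed with fluorescein-starch in ~65 nL alginate beads at about 0.3 cells per bead. Beads grew about 13 h at room temperature, were stained with nile red, and occupied beads went into 10 equally populated green/red fluorescence ratio bins by large-particle flow cytometry, whose amplicons were Illumina-sequenced.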

Sequence | AmyQ secretion efficiency
MKKRKVLTGSVLSLGLLVSASPAFATSP | 1.37
MKWMCSICCAAVLLAGGAFQAEAV | 4.41
MKRITINIKRRKRRAAVISLTGTAEAAEK | 7.96
MKKRLIAPMLLIAAILAFFAMSGSAQAAAY | 2.47
MRKKLKWLSFLLGFIILLFLFKYQFSPNDS | 6.63
MKKRLIAPMLLSAASLAFFAMSGSAQMAAY | 6.46
MRPVFPLILSAVLFLSCFFGARQTENSASKR | 6.14
MKTLRTLCVLMILSGVIFFGLKIDADDD | 6.82
MRKVFPLILSAVLFLSCFFGARQTEASASKR | 2.13
MSFIIIPMTLALGAALTIAPLSFASAEEN | 6.39
MRNLTKTSLLLAGLCTAAQMVFVTHASAKKK | 3.84
MLKRTSFVSSLFISSAVLLSILEDDDDDAHAQSA | 5.08
MKVLLSALLLLLFAFEPSASGASL | 2.94
MKRRRRRFILVLSFLSIIVAYPIQTNASPM | 2.07
MRPVFPLILSAVLFLSCFFGARQTEASKSKR | 2.19
MKKKLAAGLTASAIVGTTLVVTPCEAATI | 1.75
MKKRLIAPMLLSAASLAFFAKRKSAQAAAY | 7.88
MKKQIITATTAVVLGSTLFAGAASAQKR | 2.23
MKKAFILSAAAAVGLFTFGGVQQASCKEL | 2.66
MMSSISIFITCLLITLLTMGGMIASPASAAGT | 2.44
MKTLRTLCVLMILSGVIFFGLKIDVKDI | 6.52
MGLGKKLSVAVAASFMSLSISLKRRRKRVQAAEG | 7.64
MSTFLIGAGVAAVILSGWFIADHQTHSQEM | 6.2
MKKKLAAGLTASAIVGTTLVGGGAEAATI | 4.73
MTKKAWFLPLVCVLLISGWLAPAASASWQTT | 3.5
MHLIRAAGAVCLAVVLIAGCRFNEDQHQFEGENT | 5.53

Sequence | AmyQ secretion efficiency
MKTLRNMLSTLCVLMILSGVIFFGLKIDAKDI | 6.22
MLCVMMLLFSAIASFPVSYQAKDQ | 6.1
MKLAKRVSALTPSTTLAIEEEEAKAKEL | 7.01
MKRLLSTLLIGIMLLEQQPKAFAKQD | 1.64
MLCVMMLLFSAIASFPVSAQCKDQ | 6.94
MKKRLIAPMLLSAASLAFFAMSGSLQAAAY | 5.33
MNVLLSALLLLLFAFEPSASGKKL | 7.25
MKKELLASLVLCLSLSPLVSTNEVFAATT | 2.73
MKSKWMSGLLLVAVGFSFAIVMVHAGET | 5.38
MKQIMIFLTSFMLLARRRRKKALAKDV | 7.64
MKKCLLFLTTIALILSLSTNAFYKNT | 8.02
MVKKWLRRRRVMLSVLSTFTYSASAVGV | 6.88
MRFTKVRRKKSVLGLAAVFPLTAQAEKA | 7.85
MKKRITYSLLALLAVVAFAFTDSSAAKAAEA | 2.68
MKLWMRKTLVVLFTIVTFGLVSPPAALMYDKP | 3.73
MKKTIMSFVAVAALSTTAFGAHISAKEI | 4.65
MKIRKILLSSALSFGMLISAVPALNAGT | 6.27
MKKGIIRTFFLLVSFVLFFALSTGITGVQAAPA | 2.73
MLKKIALTLCPAIVGSLLFFTAPASSHVS | 4.06
MPYLKRVLLLLVTGLFMSLFAVTATASAQDD | 3.08
MKKSQYFIVFICFFVLFSRHKKAAAAADS | 6.2
MKKAFLVFLSVVLVTTVFLFVKQQESVAQAKQL | 2.31
MKKLKRKKVILGALGTSYISADSS | 7.53
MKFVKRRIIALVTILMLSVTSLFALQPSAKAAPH | 2.38
MHLIRAAGAVCLAVVLIAGCRFNEDQHQAEHENT | 3.89
MKQFAITLSVLCALILLVPTLLVIPRRKKRHKKEAGASV | 5.51

Sequence | AmyQ secretion efficiency
MLCVMMLLFSAIASFPVSGQAKDQ | 5.05
MGGMSCSILVVSVTLFFSFLTIGPLAHAQNS | 2.24
MKVPKTMLKKRKRKLLLSLTATSVSAHYV | 5.33
MKKQIITATTAVVLGSTLFASPASAQSI | 1.55
MKRMIVRMTLPLLIVCLAFSSFSASARAASF | 1.55
MIKGIIRFLLVSFVLFFALSTGITGVQAAPA | 2.2
MKQFAITLSVLCALILLVPTLLVIPFQHNKAAGASV | 4.37
MKRSISIFITCLLITLLKRKGMIASPASAAGT | 5.06
MKRIRIPMTLALGAALTIAPLSFFSAEEN | 6.31
MKLSVKIAGVLTVAAAAMTAKMYATTKGN | 5.53
MSSYIKVLTMCFLGLILFVPTALADNS | 1.7
MKKIWIGMLAAAVLLLMVPKVVLADAA | 3.66
MKKLILAGIALFVFISPLKSHKT | 5.8
MKLSVKIAGVLTVAAAAMTAKMYWTAKGN | 7.62
MRMLWRSLALCGLALTLAPCAQLAEP | 6.58
MKRMIVRMTLPLLIVCLAFSKDSASARAASE | 1.93
MKLKSKLFVICLAAAAIFRKKKVSANAEALDF | 6.32
MKMKSGMEQAVSVLLLLSRLPVQASFTSE | 7.78
MKLWMRKTLVVLFTIVTFGLVSPPAALMMDKP | 2.97
MTKRLSTTLTFLGIQAFAGGIILATAVLAAVFYLTDEDQAAAV | 6.23
MTKKAWFLTLVCVLLISGWLAPAASASAQTT | 1.56
MKIVLLSALLLLLFAFEPSASGKKL | 4.93
MAIIIAIIAAVIVIAALITFNVRNYSPG | 7.13
MKKTIMSFVAVAALSTTAFGAHASAADD | 2.13
MYKKFVPFAVFLFLFFVSFEMMENCHALDY | 7.9
MKLKKRVSMFRKKKRKCGGLFVTPAKAVKT | 7.44

Sequence | AmyQ secretion efficiency
MKKVLMAFIICLSLILSVLAAPPSGAKIESV | 5.54
MKKVKKRRIICLSLILSVLAAPPSGAKAESV | 1.81
MYNRKRRVCFLAALIMAFTLPNSVYAQKP | 2.73
MKKAAAVLLSLGLVFGFSYGAGHVKEAKTK | 6.72
MKLAKRVSALTPSTTLAITDKAKEL | 7.38
MMKKLFHSTLIVLLFFSFFGVQPIHAAED | 3.19
MRMLWRSLALCGLALTLAPCTGTAQAAEP | 1.82
MPYLKRVLLLLVTGLFMSLFEEEATASAQTG | 1.12
MKKAAAVLLSLGLVFGFSYGAGHVDEAKTK | 7.45
MKLSVKIAGVLTVAAAAMTAGMYATAKGN | 5.78
MRSYIKVLTMCFLGLILFVPTVLADNS | 2.19
MFKKLLLATSALTPLDGHAKAQEV | 5.8
MRQRKKAVFVIMISFLIATVNVNTAHAAID | 6.22
MKRLLVSLRVWMVFLMNWVTPDRKTAAADED | 6.67
MKKIRRRKRKCLAALFTIGFPAQQADAAEA | 7.19
MTKLKMLSMLTVMIASLFIFSKKRRRKALAVQY | 7.47
MKSKGSIMACLILFSFTITTFINTETMSAFSN | 5.38
MRGKSAVLLSLIMLIAGFLISFNFQM | 6.3
MKKKQVMLALTAAAGLGLTALHSAPAAKSAPL | 3.28
MKSKWMSGLLLVAVGFSFRKKMVHAGET | 7.87
MAIIIAIIAAVIVIAALITFNVPNASPG | 6.07
MKRLLSTLLIGIMLLTFAPSAFWKQD | 6.93
MTKKAWFLPLVCVLLIEEEEEEAASASAQTT | 6.12
MKKRKRRNFKRFIAAFLVLALMISLVPADGLAKST | 2.45
MTKKAWFLPLVCVLLISGWLAPAASASHQTT | 2.01
MKVLLSALLLLLFAFEPSASAKKL | 1.92

Sequence | AmyQ secretion efficiency
MKKVMLATALFLGLTPAGANIADL | 6.67
MAIIIAIIAAVIVIAALITFNVRNDSPG | 6.52
MRMLWRSLALCGLALTLAPCAQAAPK | 2.07
MKLWMRKTLVVLFTIVTFGLVSPPAARMADKP | 2.4
MKRSISKRKRCKKITLLTMGGMIASPASAAGT | 6.02
MLCVMMLLFSAIASFPVSAQEKDQ | 5.69
MKQKRKIIGWILLLCIIPLFAFTVIASGKEV | 6.81
MRKYTQIASILLSFLSVLSGGHHESKAFPV | 6.41
MKLSVKIAGVLTVAAAAMTAKMYATLKGN | 7.31
MKKWLIIAVSLAIAIVLFMAFKGEAKAAGM | 3.57
MRSKKLWISLLFALTLIFTMAFSNMSVVTGAQAAGK | 2.11
MSMMLRRNFKRFIAAFLVLALMISLVPADVLAKST | 1.81
MKKAAAVLLSLGLVFGFSYGAGHVYEAKTK | 5.94
MTMLSMIIGWILLLCIIPLFAFTVIASGKEV | 7.31
MTKRGIQAFAGGIILATAVLAAVFKKTKKDQAAAV | 7.92
MKKFLLVSFVLFFALSTGITGVQAAPA | 2.2
MKRLLSTLLIGITFAPSAFAKQD | 2.73
MGLGKKLSVAVAASFMSLSISLPGVQHAEG | 3.41
MLKKKWMVGLLAGCLAAGGFSYNWFATEN | 6.53
MKRKKKKASLVLFAVVFVFAVKGAPAKAETH | 2
MLKKKWMVGLLAGCLAAGGFSYNAFVTEN | 7.21
MFNRLFRVCFLAALIMAFTLPNSVYHQKP | 6.83
MKKELRRKKKRCLSLSPLVSTNEVFAATT | 6.21
MSMVMLATALFLGLTPAGANAADL | 5.37
